# Measurements as given in US20260242419A1, “A CYCLIC PEPTIDE FOR TRAPPING INTERLEUKIN-1 BETA” (Merck Sharp & Dohme LLC, priority 2023, published 2026).
# Starred links: 1 amine or outer side, 2 acyl side, 3 side chain; linkers in the order of their positions; H or OH if unused. Non-standard residues stand in square brackets, D forms with d. dProc4CH21Naph4F = (2R,4R)-4-[(4-fluoro-1-naphthyl)methyl]pyrrolidine-2-carboxylic acid, O=C([C@H]1C[C@@H](Cc2ccc(F)c3ccccc23)CN1[*:1])[*:2]; Bip4CONMe2 = (2S)-2-amino-3-[4-[4-(dimethylcarbamoyl)phenyl]phenyl]propanoic acid, CN(C)C(=O)c1ccc(-c2ccc(C[C@H](N[*:1])C(=O)[*:2])cc2)cc1; dProc3Bn4Cl = (2R,3S)-3-[(4-chlorophenyl)methyl]pyrrolidine-2-carboxylic acid, O=C([C@H]1[C@@H](Cc2ccc(Cl)cc2)CCN1[*:1])[*:2]; dProc4Bn4Cl = (2R,4R)-4-[(4-chlorophenyl)methyl]pyrrolidine-2-carboxylic acid, O=C([C@H]1C[C@@H](Cc2ccc(Cl)cc2)CN1[*:1])[*:2]; TyrEtNAc = (2S)-3-[4-(2-acetamidoethoxy)phenyl]-2-amino-propanoic acid, CC(=O)NCCOc1ccc(C[C@H](N[*:1])C(=O)[*:2])cc1; dProc3CH24Pal = (2R,3S)-3-(4-pyridylmethyl)pyrrolidine-2-carboxylic acid, O=C([C@H]1[C@@H](Cc2ccncc2)CCN1[*:1])[*:2]; 4PyrimAla = (2S)-2-amino-3-pyrimidin-4-yl-propanoic acid, O=C([C@H](Cc1ccncn1)N[*:1])[*:2]; Phe4pcCCA = (1R,4s)-4-(4-((S)-2-amino-2-carboxyethyl)phenyl)cyclohexane-1-carboxylic acid; dPro(4R-(4-pyridylmethyl)) = O=C(O)[C@H]1C[C@@H](Cc2ccncc2)CN1; Ala(piperidin-4-yl) = O=C([C@H](CC1CCN([*:3])CC1)N[*:1])[*:2]; Trp(βS-Me,4-F) = C[C@@H](c1c[nH]c2cccc(F)c12)[C@H](N)C(=O)O; Bip(4'-CONH2) = NC(=O)c1ccc(-c2ccc(C[C@H](N)C(=O)O)cc2)cc1; Bip(4'-COOH) = N[C@@H](Cc1ccc(-c2ccc(C(=O)O)cc2)cc1)C(=O)O; Ala(1-bicyclo(1.1.1)pentyl) = N[C@@H](CC12CC(C1)C2)C(=O)O; dPro(4R-Bzl(4-F)) = O=C(O)[C@H]1C[C@@H](Cc2ccc(F)cc2)CN1; dPro(3S-(4-F-Bn)) = O=C(O)[C@@H]1NCC[C@@H]1Cc1ccc(F)cc1; Bip(4'-Cl) = N[C@@H](Cc1ccc(-c2ccc(Cl)cc2)cc1)C(=O)O; Ala(morpholin-4-yl) = N[C@@H](CN1CCOCC1)C(=O)O; Ala(pyrimidin-5-yl) = N[C@@H](Cc1cncnc1)C(=O)O; Phe(4-COOH) = N[C@@H](Cc1ccc(C(=O)O)cc1)C(=O)O; Ala(4-Pyridazinyl) = N[C@@H](Cc1ccnnc1)C(=O)O; Ala(2-pyrazinyl) = N[C@@H](Cc1cnccn1)C(=O)O; Bip = N[C@@H](Cc1ccc(-c2ccccc2)cc1)C(=O)O; Pro(cis-4-F) = O=C(O)[C@@H]1C[C@H](F)CN1; cisHyp = O=C(O)[C@@H]1C[C@H](O)CN1; d(αMeD) = C[C@@](N)(CC(=O)O)C(=O)O; h4Pal = N[C@@H](CCc1ccncc1)C(=O)O; 3Pal = N[C@@H](Cc1cccnc1)C(=O)O; 4Pal = N[C@@H](Cc1ccncc1)C(=O)O; aThr = C[C@H](O)[C@H](N)C(=O)O; d(αMeS) = C[C@@](N)(CO)C(=O)O; Dab = NCC[C@H](N)C(=O)O; Aib = CC(C)(N)C(=O)O; Sar = CNCC(=O)O
# Biological target: Recombinant human IL-1β (BioLegend 579404) (human, UniProt P01584 117-269)
# Experiment: cell-based or functional assay
row,Binder,MRC5 IC50
1,"cyclo([Bip(4'-COOH)][4Pal][Phe(4-COOH)]G[Pro(cis-4-F)][Trp(βS-Me,4-F)][Aib]SW[d(αMeD)][4PyrimAla]Q[Dab]G[dPro(4R-Bzl(4-F))]) (ring closure inferred) [SEQ ID NO 332]",13 pM
2,"cyclo([Bip(4'-COOH)][4Pal][Phe(4-COOH)]G[Pro(cis-4-F)][Trp(βS-Me,4-F)][Aib]SW[Aib][Ala(pyrimidin-5-yl)]Q[Dab]G[dProc3CH24Pal]) (ring closure inferred) [SEQ ID NO 326]",11 pM
3,"cyclo([Bip(4'-COOH)][4Pal][Phe(4-COOH)]G[Pro(cis-4-F)][Trp(βS-Me,4-F)][Aib]SW[d(αMeD)][Ala(pyrimidin-5-yl)]Q[Dab]G[dPro(3S-(4-F-Bn))]) (ring closure inferred) [SEQ ID NO 331]",11 pM
4,"cyclo([TyrEtNAc][4Pal][Phe(4-COOH)]G[Pro(cis-4-F)][Trp(βS-Me,4-F)][Aib]EW[Aib]HQ[Dab]G[dPro(4R-(4-pyridylmethyl))]) (ring closure inferred) [SEQ ID NO 317]",15 pM
5,"cyclo([TyrEtNAc][4Pal][Phe(4-COOH)]G[Pro(cis-4-F)][Trp(βS-Me,4-F)][Aib]EW[Aib]FQ[Dab]G[dPro(4R-(4-pyridylmethyl))]) (ring closure inferred) [SEQ ID NO 336]",23 pM
6,"cyclo([Bip(4'-COOH)][4Pal][Phe(4-COOH)]G[Pro(cis-4-F)][Trp(βS-Me,4-F)][Aib]SW[d(αMeD)][Ala(piperidin-4-yl)]Q[Dab]G[dPro(4R-Bzl(4-F))]) (ring closure inferred) [SEQ ID NO 320]",15 pM
7,"cyclo([TyrEtNAc][4Pal][Phe(4-COOH)]G[Pro(cis-4-F)][Trp(βS-Me,4-F)][Aib]EW[Aib][h4Pal]Q[Dab]G[dPro(4R-(4-pyridylmethyl))]) (ring closure inferred) [SEQ ID NO 318]",25 pM
8,"cyclo([Bip(4'-COOH)][4Pal][Phe(4-COOH)]G[Pro(cis-4-F)][Trp(βS-Me,4-F)][Aib]SW[d(αMeD)][Ala(morpholin-4-yl)]Q[Dab]G[dPro(4R-Bzl(4-F))]) (ring closure inferred) [SEQ ID NO 319]",17 pM
9,"cyclo([Bip(4'-Cl)][4Pal][Phe(4-COOH)]G[Pro(cis-4-F)][Trp(βS-Me,4-F)][Aib]SW[d(αMeD)][Ala(pyrimidin-5-yl)]Q[Dab]G[dPro(4R-(4-pyridylmethyl))]) (ring closure inferred) [SEQ ID NO 344]",22 pM
10,"cyclo([Bip4CONMe2][Ala(1-bicyclo(1.1.1)pentyl)][Phe(4-COOH)]G[Pro(cis-4-F)][Trp(βS-Me,4-F)][Aib]SW[d(αMeD)][Ala(pyrimidin-5-yl)]Q[Dab]G[dPro(4R-(4-pyridylmethyl))]) (ring closure inferred) [SEQ ID NO 341]",24 pM
11,"cyclo([Bip(4'-CONH2)][4Pal][Phe(4-COOH)]G[Pro(cis-4-F)][Trp(βS-Me,4-F)][Aib]SW[d(αMeS)][Ala(pyrimidin-5-yl)]Q[Dab]G[dPro(4R-(4-pyridylmethyl))]) (ring closure inferred) [SEQ ID NO 339]",24 pM
12,"cyclo([Phe4pcCCA][Ala(1-bicyclo(1.1.1)pentyl)][Phe(4-COOH)]G[Pro(cis-4-F)][Trp(βS-Me,4-F)][Aib]SW[d(αMeD)][Ala(pyrimidin-5-yl)]Q[Dab]G[dPro(4R-(4-pyridylmethyl))]) (ring closure inferred) [SEQ ID NO 335]",22 pM
13,"cyclo([Bip(4'-COOH)][4Pal][Phe(4-COOH)]G[Pro(cis-4-F)][Trp(βS-Me,4-F)][Aib]SW[d(αMeD)][Ala(pyrimidin-5-yl)]Q[Dab]G[dProc4CH21Naph4F]) (ring closure inferred) [SEQ ID NO 327]",16 pM
14,"cyclo([Bip(4'-COOH)][4Pal][Phe(4-COOH)]G[Pro(cis-4-F)][Trp(βS-Me,4-F)][Aib]SW[d(αMeD)][Ala(pyrimidin-5-yl)]Q[Dab]G[dProc3Bn4Cl]) (ring closure inferred) [SEQ ID NO 330]",8 pM
15,"cyclo([Bip(4'-COOH)][4Pal][Phe(4-COOH)]G[Pro(cis-4-F)][Trp(βS-Me,4-F)][Aib]SW[d(αMeD)][Ala(pyrimidin-5-yl)]Q[Dab]G[dProc4Bn4Cl]) (ring closure inferred) [SEQ ID NO 329]",9 pM
16,"cyclo([Bip4CONMe2][4Pal][Phe(4-COOH)]G[Pro(cis-4-F)][Trp(βS-Me,4-F)][Aib]SW[d(αMeS)][Ala(pyrimidin-5-yl)]Q[Dab]G[dPro(4R-(4-pyridylmethyl))]) (ring closure inferred) [SEQ ID NO 338]",18 pM
17,"cyclo([Bip(4'-CONH2)][Ala(1-bicyclo(1.1.1)pentyl)][Phe(4-COOH)]G[Pro(cis-4-F)][Trp(βS-Me,4-F)][Aib]SW[d(αMeD)][Ala(pyrimidin-5-yl)]Q[Dab]G[dPro(4R-(4-pyridylmethyl))]) (ring closure inferred) [SEQ ID NO 342]",22 pM
18,"cyclo([Bip(4'-COOH)][4Pal][Phe(4-COOH)]G[Pro(cis-4-F)][Trp(βS-Me,4-F)][Aib]SW[d(αMeD)][Ala(2-pyrazinyl)]Q[Dab]G[dPro(4R-Bzl(4-F))]) (ring closure inferred) [SEQ ID NO 321]",15 pM
19,"cyclo([Bip][4Pal][Phe(4-COOH)]G[Pro(cis-4-F)][Trp(βS-Me,4-F)][Aib]SW[d(αMeD)][Ala(pyrimidin-5-yl)]Q[Dab]G[dPro(4R-(4-pyridylmethyl))]) (ring closure inferred) [SEQ ID NO 333]",22 pM
20,"cyclo([Bip(4'-COOH)][4Pal][Phe(4-COOH)]G[Pro(cis-4-F)][Trp(βS-Me,4-F)][Aib]SW[d(αMeD)][4Pal]Q[Dab]G[dPro(4R-Bzl(4-F))]) (ring closure inferred) [SEQ ID NO 324]",13 pM
21,"cyclo([Bip(4'-COOH)][4Pal][Phe(4-COOH)]G[Pro(cis-4-F)][Trp(βS-Me,4-F)][Aib]SW[d(αMeD)][aThr]Q[Dab][Sar][dPro(4R-(4-pyridylmethyl))]) (ring closure inferred) [SEQ ID NO 337]",22 pM
22,"cyclo([Bip(4'-COOH)][4Pal][Phe(4-COOH)]G[Pro(cis-4-F)][Trp(βS-Me,4-F)][Aib]SW[d(αMeD)][Ala(4-Pyridazinyl)]Q[Dab]G[dPro(4R-Bzl(4-F))]) (ring closure inferred) [SEQ ID NO 322]",13 pM
23,"cyclo([Bip(4'-COOH)][4Pal][Phe(4-COOH)]G[Pro(cis-4-F)][Trp(βS-Me,4-F)][Aib]SW[d(αMeD)][3Pal]Q[Dab]G[dPro(4R-Bzl(4-F))]) (ring closure inferred) [SEQ ID NO 323]",12 pM
24,"cyclo([Bip(4'-COOH)][4Pal][Phe(4-COOH)]G[cisHyp][Trp(βS-Me,4-F)][Aib]SW[Aib][Ala(pyrimidin-5-yl)]Q[Dab]G[dProc3CH24Pal]) (ring closure inferred) [SEQ ID NO 325]",27 pM
25,"cyclo([Bip][Ala(1-bicyclo(1.1.1)pentyl)][Phe(4-COOH)]G[Pro(cis-4-F)][Trp(βS-Me,4-F)][Aib]SW[d(αMeD)][Ala(pyrimidin-5-yl)]Q[Dab]G[dPro(4R-(4-pyridylmethyl))]) (ring closure inferred) [SEQ ID NO 343]",26 pM
26,"cyclo([Phe4pcCCA][Ala(1-bicyclo(1.1.1)pentyl)][Phe(4-COOH)]G[Pro(cis-4-F)][Trp(βS-Me,4-F)][Aib]SW[d(αMeD)][aThr]Q[Dab]G[dPro(4R-(4-pyridylmethyl))]) (ring closure inferred) [SEQ ID NO 334]",22 pM
27,"cyclo([Bip(4'-COOH)][4Pal][Phe(4-COOH)]G[Pro(cis-4-F)][Trp(βS-Me,4-F)][Aib]SW[d(αMeD)][Ala(pyrimidin-5-yl)]Q[Dab]G[dProc3CH24Pal]) (ring closure inferred) [SEQ ID NO 328]",8 pM
28,"cyclo([Bip][4Pal][Phe(4-COOH)]G[Pro(cis-4-F)][Trp(βS-Me,4-F)][Aib]SW[d(αMeS)][Ala(pyrimidin-5-yl)]Q[Dab]G[dPro(4R-(4-pyridylmethyl))]) (ring closure inferred) [SEQ ID NO 340]",21 pM
